Measured values reported in PMC12905440.

What was measured:
Ago1 (RISC) [1] = molecular target: Ago1 (RISC) (UniProt A1Z9J5); assay: RBNS; conditions: RBNS: 20 mM HEPES-KOH pH 7.9, 100 mM KOAc, 3.5 mM Mg(OAc)2, 0.05% CHAPS, 2 mM DTT, 8% glycerol, BSA, tRNA, 25 C, 2 h, filter binding: 25 mM HEPES-KOH pH 7.9 …
Ago1 (RISC) [2] = molecular target: Ago1 (RISC) (UniProt A1Z9J5); assay: double-filter binding; conditions: let-7 guide, RBNS: 20 mM HEPES-KOH pH 7.9, 100 mM KOAc, 3.5 mM Mg(OAc)2, 0.05% CHAPS, 2 mM DTT, 8% glycerol, BSA, tRNA, 25 C, 2 h, filter binding: 25 mM HEPES-KOH pH 7.9 …
PUM2 (Homo sapiens) = molecular target: T1, PUM2 (Homo sapiens) (UniProt Q8TB72); assay: RBNS; conditions: re-analysis of published RBNS data (ref 38); RBNS: 20 mM HEPES-KOH pH 7.9, 100 mM KOAc, 3.5 mM Mg(OAc)2, 0.05% CHAPS, 2 mM DTT, 8% glycerol, BSA, tRNA, 25 C, 2 h; filter binding: 25 mM HEPES-KOH pH 7.9 …
T1 sequence: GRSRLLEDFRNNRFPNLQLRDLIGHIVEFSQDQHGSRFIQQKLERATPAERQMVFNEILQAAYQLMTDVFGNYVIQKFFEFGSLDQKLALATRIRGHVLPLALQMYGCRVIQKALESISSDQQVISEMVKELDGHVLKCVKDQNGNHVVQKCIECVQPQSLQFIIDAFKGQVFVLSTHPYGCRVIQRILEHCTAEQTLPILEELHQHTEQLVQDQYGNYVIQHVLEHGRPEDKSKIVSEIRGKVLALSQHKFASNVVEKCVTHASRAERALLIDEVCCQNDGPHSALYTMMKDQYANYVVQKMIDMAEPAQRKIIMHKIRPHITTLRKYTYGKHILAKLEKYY

Sequence of Ago1 (RISC) (A1Z9J5 entry or part of it): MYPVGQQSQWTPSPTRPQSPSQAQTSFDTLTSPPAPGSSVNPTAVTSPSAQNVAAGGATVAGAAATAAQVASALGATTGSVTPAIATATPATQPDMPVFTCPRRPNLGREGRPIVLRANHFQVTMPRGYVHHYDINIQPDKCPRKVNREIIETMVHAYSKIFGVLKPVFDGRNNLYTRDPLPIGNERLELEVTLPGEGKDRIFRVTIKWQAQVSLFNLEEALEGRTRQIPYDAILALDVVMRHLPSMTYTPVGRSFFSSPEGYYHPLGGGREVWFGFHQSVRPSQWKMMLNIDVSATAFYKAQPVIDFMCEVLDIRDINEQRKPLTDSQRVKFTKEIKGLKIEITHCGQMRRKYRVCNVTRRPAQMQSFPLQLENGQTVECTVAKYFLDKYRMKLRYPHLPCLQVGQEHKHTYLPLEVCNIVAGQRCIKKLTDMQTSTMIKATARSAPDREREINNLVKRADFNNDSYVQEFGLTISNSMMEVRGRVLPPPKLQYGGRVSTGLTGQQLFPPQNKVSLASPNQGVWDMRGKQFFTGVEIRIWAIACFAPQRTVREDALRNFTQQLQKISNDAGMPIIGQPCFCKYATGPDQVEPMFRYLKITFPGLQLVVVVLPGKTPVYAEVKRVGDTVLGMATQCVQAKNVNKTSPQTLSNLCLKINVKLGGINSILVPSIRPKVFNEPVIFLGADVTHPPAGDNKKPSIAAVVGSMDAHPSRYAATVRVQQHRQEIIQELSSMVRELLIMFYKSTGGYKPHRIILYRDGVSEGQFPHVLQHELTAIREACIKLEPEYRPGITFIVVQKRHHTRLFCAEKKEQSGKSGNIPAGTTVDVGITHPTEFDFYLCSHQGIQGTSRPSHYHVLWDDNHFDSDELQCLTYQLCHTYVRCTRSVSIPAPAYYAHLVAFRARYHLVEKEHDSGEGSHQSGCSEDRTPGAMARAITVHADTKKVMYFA

How did the Kd (Ago1 (RISC) [1]; bantam guide) turn out when “UGAUCUUB / UGAGAUCAUUUUGAAAGCUGAUU [bantam / 7mer-m8,w2]” was run?
The Kd was 0.866 nM.

With “let-7 guide / seed-matching target (Fig 1c)” as the substance, how does the Kd (Ago1 (RISC) [2]; 5' 32P target) read?
The Kd was 0.005 nM.

For “UCCGUCUB / UGGACGGAGAACUGAUAAGGGC [miR-184 / 7mer-m8,w2]”, which Kd (Ago1 (RISC) [1]; miR-184 guide) is on record?
Its Kd is 0.154 nM.

With “let-7 guide / fully complementary target (Fig 1c)” as the substance, how does the Kd (Ago1 (RISC) [2]) read?
The Kd was 0.002 nM.

With “CUACCUUB / UGAGGUAGUAGGUUGUAUAGU [let-7 / 7mer-m8,w2]” as the substance, how does the Kd (Ago1 (RISC) [1]; let-7 guide) read?
The Kd was 0.278 nM.

With UGUAUAUA [PUM consensus site] as the substance, how does the Kd (PUM2 (Homo sapiens)) read?
The Kd was 0.12 nM.
